Results from patent publication US20260210939A1, “MODIFIED OLFACTORY RECEPTORS” (GIVAUDAN SA, priority 2022, published 2026).

Biological target: T1, OR7C1 (Homo sapiens, UniProt O76099, D296E/G302K/M297V/R299D/T295K/V126I)
T1 construct: Improved functional expression of modified OR-genes containing the truncated, optimized C-terminus; expressed in transfected cells; host or cells: HEK293T stably expressing human RTP1S(V227I) and RTP2(L220R)
T1 sequence (O76099 with tags, fused parts or gaps V126I/T295K/D296E/M297V/R299D/G302K): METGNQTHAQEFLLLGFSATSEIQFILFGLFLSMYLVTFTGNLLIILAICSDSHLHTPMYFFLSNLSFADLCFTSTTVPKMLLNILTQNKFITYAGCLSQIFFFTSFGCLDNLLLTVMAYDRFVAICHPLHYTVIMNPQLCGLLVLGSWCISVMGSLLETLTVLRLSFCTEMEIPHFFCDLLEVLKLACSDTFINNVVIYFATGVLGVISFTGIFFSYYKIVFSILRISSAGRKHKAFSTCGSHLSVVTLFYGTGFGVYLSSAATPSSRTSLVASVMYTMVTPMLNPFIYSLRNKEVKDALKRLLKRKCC
Assay: CRE-luciferase assay, HEK293T cells expressing OR7C1 (wild-type / modified C-terminus)
Format: cell-based
Settings: OR7C1 variant, 1 μM Ambermax
Text: To test for possible variants of the sequence […]CC (SEQ ID NO: 86) leading to similar improved functional expression, different point mutations were introduced into the first 16 amino acids of this sequence (corresponding to […], SEQ ID NO: 10) and the variants were fused after the TM7 with OR7C1. […] The test concentrations were selected to fall into the range of partial activity of the wild-type sequence.

Q: With “SEQ ID NO: 99 (RNKEVKDAIKRLLKRKCC; source 1..18: note = C-terminal domain sequence)” as the substance, how does the “% of the activation by the optimized sequence RNKEVKDALKRLLKRKCC” value (shortened to “% of the activation”) read?
A: 174.6%

Q: For “SEQ ID NO: 100 (RNKEVKDALRRLLKRKCC; source 1..18: note = C-terminal domain sequence)”, which “% of the activation” value is on record?
A: 86.0%

Q: Which “% of the activation” value does the source give for “SEQ ID NO: 101 (RNKEVKDALKKLLKRKCC; source 1..18: note = C-terminal domain sequence)” here?
A: 86.8%

Q: How did the “% of the activation” value turn out when “SEQ ID NO: 102 (RNKEVKDALKRLIKRKCC; source 1..18: note = C-terminal domain sequence)” was run?
A: 88.6%

Q: For “SEQ ID NO: 103 (RNKEVKDALKRLFKRKCC; source 1..18: note = C-terminal domain sequence)”, which “% of the activation” value is on record?
A: 207.1%

Q: Which “% of the activation” value does the source give for “SEQ ID NO: 104 (RNKEVKDALKRLLRRKCC; source 1..18: note = C-terminal domain sequence)” here?
A: 96.3%

Q: Which “% of the activation” value does the source give for “SEQ ID NO: 105 (RNKEVKDALKRLLKKKCC; source 1..18: note = C-terminal domain sequence)” here?
A: 106.7%

Q: How did the “% of the activation” value turn out when “SEQ ID NO: 106 (RNKEVKDALKRLLKRRCC; source 1..18: note = C-terminal domain sequence)” was run?
A: 104.1%

Q: How did the “% of the activation” value turn out when “SEQ ID NO: 107 (RNKDVKDALKRLLKRKCC; source 1..18: note = C-terminal domain sequence)” was run?
A: 53.2%

Q: With “SEQ ID NO: 108 (RNKQVKDALKRLLKRKCC; source 1..18: note = C-terminal domain sequence)” as the substance, how does the “% of the activation” value read?
A: 42.0%

Q: How did the “% of the activation” value turn out when “SEQ ID NO: 109 (RNKELKDALKRLLKRKCC; source 1..18: note = C-terminal domain sequence)” was run?
A: 43.8%

Q: With “SEQ ID NO: 110 (RNKEVKGALKRLLKRKCC; source 1..18: note = C-terminal domain sequence)” as the substance, how does the “% of the activation” value read?
A: 41.6%

Q: How did the “% of the activation” value turn out when “SEQ ID NO: 111 (RNKEVKDALHRLLKRKCC; source 1..18: note = C-terminal domain sequence)” was run?
A: 44.4%

Q: With “SEQ ID NO: 112 (RNKEVKDALKRILKRKCC; source 1..18: note = C-terminal domain sequence)” as the substance, how does the “% of the activation” value read?
A: 53.2%

Q: How did the “% of the activation” value turn out when “SEQ ID NO: 113 (RNKEVKDALKRLLGRKCC; source 1..18: note = C-terminal domain sequence)” was run?
A: 63.2%

Q: “SEQ ID NO: 119 (RNKEVKDALRKLLKRKCC; source 1..18: note = C-terminal domain sequence)” was tested. Which “% of the activation” value did it give?
A: 157.1%

Q: With “SEQ ID NO: 120 (RNKEVKDALKRLLRRRCC; source 1..18: note = C-terminal domain sequence)” as the substance, how does the “% of the activation” value read?
A: 90.4%

Q: With “SEQ ID NO: 123 (RNKEVKRALKRLLKRKRR; source 1..18: note = C-terminal domain sequence)” as the substance, how does the “% of the activation” value read?
A: 312.9%

Q: For “SEQ ID NO: 124 (RNKEVKRALKRLLKRKYP; source 1..18: note = C-terminal domain sequence)”, which “% of the activation” value is on record?
A: 239.7%

Q: “SEQ ID NO: 125 (RNKEVKRALKRLLKRKRF; source 1..18: note = C-terminal domain sequence)” was tested. Which “% of the activation” value did it give?
A: 254.2%

Q: “SEQ ID NO: 126 (RNKEVKRALKRLLKRKFK; source 1..18: note = C-terminal domain sequence)” was tested. Which “% of the activation” value did it give?
A: 280.9%

Q: How did the “% of the activation” value turn out when “SEQ ID NO: 127 (RNKEVKKALKRLLKRKRR; source 1..18: note = C-terminal domain sequence)” was run?
A: 308.5%

Q: With “SEQ ID NO: 128 (RNKEVKKALKRLLKRKYP; source 1..18: note = C-terminal domain sequence)” as the substance, how does the “% of the activation” value read?
A: 206.9%

Q: For “SEQ ID NO: 129 (RNKEVKKALKRLLKRKRF; source 1..18: note = C-terminal domain sequence)”, which “% of the activation” value is on record?
A: 294.8%

Q: Which “% of the activation” value does the source give for “SEQ ID NO: 130 (RNKEVKKALKRLLKRKFK; source 1..18: note = C-terminal domain sequence)” here?
A: 286.4%

Q: With “SEQ ID NO: 154 (RNKEVKDALKRLLKRKCRRRR; source 1..21: note = C-terminal domain sequence)” as the substance, how does the “% of the activation” value read?
A: 263.5%

Q: With “SEQ ID NO: 157 (RNKEVKDALKRLLKRKCRRRRR; source 1..22: note = C-terminal domain sequence)” as the substance, how does the “% of the activation” value read?
A: 204.3%

Q: Which “% of the activation” value does the source give for “SEQ ID NO: 158 (RNKEVKDALKRLLKRKCRRRKK; source 1..22: note = C-terminal domain sequence)” here?
A: 168.8%

Q: Which “% of the activation” value does the source give for “SEQ ID NO: 186 (KNKEVKDALKRLLKRKCC; source 1..18: note = C-terminal domain sequence)” here?
A: 26.0%

Q: With “SEQ ID NO: 187 (RTKEVKDALKRLLKRKCC; source 1..18: note = C-terminal domain sequence)” as the substance, how does the “% of the activation” value read?
A: 3.3%

Q: For “SEQ ID NO: 188 (RQKEVKDALKRLLKRKCC; source 1..18: note = C-terminal domain sequence)”, which “% of the activation” value is on record?
A: 28.5%

Q: With “SEQ ID NO: 189 (RNHEVKDALKRLLKRKCC; source 1..18: note = C-terminal domain sequence)” as the substance, how does the “% of the activation” value read?
A: 16.2%

Q: With “SEQ ID NO: 190 (RNKEVKDGLKRLLKRKCC; source 1..18: note = C-terminal domain sequence)” as the substance, how does the “% of the activation” value read?
A: 4.6%

Q: With “SEQ ID NO: 191 (RNKEVKDVLKRLLKRKCC; source 1..18: note = C-terminal domain sequence)” as the substance, how does the “% of the activation” value read?
A: 3.9%

Q: How did the “% of the activation” value turn out when “SEQ ID NO: 192 (RNKEVKDAMKRLLKRKCC; source 1..18: note = C-terminal domain sequence)” was run?
A: 27.0%

Q: For “SEQ ID NO: 193 (RNKEVKDALKHLLKRKCC; source 1..18: note = C-terminal domain sequence)”, which “% of the activation” value is on record?
A: 12.3%

Q: With “SEQ ID NO: 194 (RNKEVKDALKRVVKRKCC; source 1..18: note = C-terminal domain sequence)” as the substance, how does the “% of the activation” value read?
A: 30.4%

Q: “SEQ ID NO: 195 (RNKEVKDALKRLRKRKCC; source 1..18: note = C-terminal domain sequence)” was tested. Which “% of the activation” value did it give?
A: 14.1%

Q: With “SEQ ID NO: 196 (RNKEVKDALKRLKKRKCC; source 1..18: note = C-terminal domain sequence)” as the substance, how does the “% of the activation” value read?
A: 5.7%

Q: “SEQ ID NO: 197 (RNKEVKDALKRLLERKCC; source 1..18: note = C-terminal domain sequence)” was tested. Which “% of the activation” value did it give?
A: 5.6%

Q: With “SEQ ID NO: 321 (RNKEVKCALKRLLKRKCC; source 1..18: note = C-terminal domain sequence)” as the substance, how does the “% of the activation” value read?
A: 46.0%

Q: How did the “% of the activation” value turn out when “SEQ ID NO: 322 (RNKEVKFALKRLLKRKCC; source 1..18: note = C-terminal domain sequence)” was run?
A: 41.1%

Q: “SEQ ID NO: 323 (RNKEVKHALKRLLKRKCC; source 1..18: note = C-terminal domain sequence)” was tested. Which “% of the activation” value did it give?
A: 65.6%

Q: For “SEQ ID NO: 324 (RNKEVKIALKRLLKRKCC; source 1..18: note = C-terminal domain sequence)”, which “% of the activation” value is on record?
A: 81.0%

Q: “SEQ ID NO: 325 (RNKEVKLALKRLLKRKCC; source 1..18: note = C-terminal domain sequence)” was tested. Which “% of the activation” value did it give?
A: 108.0%

Q: For “SEQ ID NO: 326 (RNKEVKMALKRLLKRKCC; source 1..18: note = C-terminal domain sequence)”, which “% of the activation” value is on record?
A: 107.6%

Q: With “SEQ ID NO: 327 (RNKEVKPALKRLLKRKCC; source 1..18: note = C-terminal domain sequence)” as the substance, how does the “% of the activation” value read?
A: −3.7%

Q: Which “% of the activation” value does the source give for “SEQ ID NO: 328 (RNKEVKSALKRLLKRKCC; source 1..18: note = C-terminal domain sequence)” here?
A: 99.1%

Q: How did the “% of the activation” value turn out when “SEQ ID NO: 329 (RNKEVKTALKRLLKRKCC; source 1..18: note = C-terminal domain sequence)” was run?
A: 129.9%

Q: “SEQ ID NO: 330 (RNKEVKWALKRLLKRKCC; source 1..18: note = C-terminal domain sequence)” was tested. Which “% of the activation” value did it give?
A: 17.4%

Q: Which “% of the activation” value does the source give for “SEQ ID NO: 331 (RNKEVKYALKRLLKRKCC; source 1..18: note = C-terminal domain sequence)” here?
A: 59.4%

Q: Which “% of the activation” value does the source give for Ser Gln here?
A: 1.0%

Q: Which “% of the activation” value does the source give for Ser Ile here?
A: 225.3%
